{"source": "paper PMC6640694", "test_in_all_cases": "BLI; Octet Red96; 5 μg/mL antibody loaded onto Protein A biosensor, dipped into His-tagged OX40 extracellular domain at 200, 100 and 50 nM or 1600, 800 and 400 nM; 1:1 binding model, global fit", "key": {"tOX40.23": {"biological_target": "tOX40.23"}, "tOX40.21": {"biological_target": "tOX40.21"}, "tOX40.40": {"biological_target": "tOX40.40"}, "tOX40.50": {"biological_target": "tOX40.50"}, "tOX40.15": {"biological_target": "tOX40.15"}, "tOX40.39": {"biological_target": "tOX40.39"}, "tOX40.31": {"biological_target": "tOX40.31"}, "tOX40.4": {"biological_target": "tOX40.4"}, "tOX40.54": {"biological_target": "tOX40.54"}, "tOX40.41": {"biological_target": "tOX40.41"}, "tOX40.22": {"biological_target": "tOX40.22"}, "tOX40.19": {"biological_target": "tOX40.19"}, "tOX40.37": {"biological_target": "tOX40.37"}, "tOX40.35": {"biological_target": "tOX40.35"}}, "data": [{"binder": "recombinant His-tagged human OX40 extracellular domain (domain or fragment) LHCVGDTYPSNDRCCHECRPGNGMVSRCSRSQNTVCRPCGPGFYNDVVSSKPCKPCTWCNLRSGSERKQLCTATQDTVCRCRAGTQPLDSYKPGVDCAPCPPGHFSPGDNQACKPWTNCTLAGKHTLQPASNSSDAICEDRDPPATQPQETQGPPARPITVQPTEAWPRTSQGPSTRPVEVPGGRA", "values": [{"measurement": "Kd", "setting": "tOX40.23", "result": 5.2, "unit": "nM"}, {"measurement": "Kd", "setting": "tOX40.21", "result": 7, "unit": "nM"}, {"measurement": "Kd", "setting": "tOX40.40", "result": 151, "unit": "nM"}, {"measurement": "Kd", "setting": "tOX40.50", "result": 29.8, "unit": "nM"}, {"measurement": "Kd", "setting": "tOX40.15", "result": 6, "unit": "nM"}, {"measurement": "Kd", "setting": "tOX40.39", "result": 90, "unit": "nM"}, {"measurement": "Kd", "setting": "tOX40.31", "result": 22.4, "unit": "nM"}, {"measurement": "Kd", "setting": "tOX40.4", "result": 9, "unit": "nM"}, {"measurement": "Kd", "setting": "tOX40.54", "result": 184, "unit": "nM"}, {"measurement": "Kd", "setting": "tOX40.41", "result": 58.4, "unit": "nM"}, {"measurement": "Kd", "setting": "tOX40.22", "result": 7.3, "unit": "nM"}, {"measurement": "Kd", "setting": "tOX40.19", "result": 7.7, "unit": "nM"}, {"measurement": "Kd", "setting": "tOX40.37", "result": 12.5, "unit": "nM"}, {"measurement": "Kd", "setting": "tOX40.35", "result": 2.7, "unit": "nM"}]}]}
